Laboratory results reported in patent US20220289837A1, “Cystic Fibrosis Transmembrane Conductance Regulator Stabilizing Agents” (VIB VZW, priority 2019, published 2022).

B1: T2a: NBD1-specific CFTR-stabilizing nanobody, SEQ ID NO:3, binds epitope 1 (protein)
VHH: QVQLQESGGGLVQAGGSLRLSCAASGSIFRIDAMGWYRQAPGKQRELVAHSTSGGSTDYADSVKGRFTISRDNAKNTVYLQMNSLKPEDTAVYYCNADVRTRWYASNNYWGQGTQVTVSS
modifications: T2a Nanobody amino acid sequence
B2: T27: NBD1-specific CFTR-stabilizing nanobody, SEQ ID NO:4, binds epitope 1 (protein)
VHH: QVQLQESGGGLEQPGGSLRLSCATSGVIFGINAMGWYRQAPGKQRELVATFTSGGSTNYADFVEGRFTISRDNAKNTVYLQMNGLRPEDTAVYYCHATVVVSRYGLTYDYWGQGTQVTVSS
modifications: T27 Nanobody amino acid sequence
B3: T8: nanobody, SEQ ID NO:7, binds epitope 2 including F508, stabilizes WT CFTR but not F508del (protein)
VHH: QVQLQESGGGLVQPGGSLRLSCAASGSTSSINAMGWYRQAPGKQREPVAISSSGGDTRYAEPVKGRFTISRDNAQNKVYLQMNSLKPEDTAVYYCWLNWGRTSVNSWGQGTQVTVSS
modifications: T8 Nanobody amino acid sequence
B4: D12: NBD1-specific CFTR-stabilizing nanobody, SEQ ID NO:2, binds epitope 1 (protein)
VHH: QVQLQESGGGLVQAGSSLRLACAATGSIRSINNMGWYRQAPGKQRGMVAIITRVGNTDYADSVKGRFTISRDNAKNTVYLQMNSLKPEDTATYYCHAEITEQSRPFYLTDDYWGQGTQVTVSS
modifications: D12 Nanobody amino acid sequence
B5: G3a: non-stabilizing nanobody, SEQ ID NO:50, recognizes the structurally diverse region of NBD1 (protein)
VHH: QVQLQESGGGLVQAGGSLRLSCTASGRAFSWYVMGWFRQAPGKEREFVATVSGNGSRRDYADSVKGRFTISRDNAKNTVYLQMNSLKPEDTAVYYCAASSTYYYTDPEKYDYWGQGTQVTVSS
modifications: G3a Nanobody

System: parental BHK-21 cells
Assay: Flow cytometry on parental BHK-21 cells
Format: cell-based, hamster
Conditions: compared to negative control nanobody
Description: Parental BHK-21 cells (ATCC; CCL-10) and cells stably overexpressing human wt-CFTR^[43,44,47] or 2PT-F508del-CFTR, as described above, were permeabilized with 0.01% n-Dodecyl-β-D-Maltopyranoside β-DDM—Inalco) at least for 2 h on ice. In the meantime, cells were incubated with 50 μg/ml nanobodies and DRAQ7 (0.3 μM—Biostatus) to monitor the permeabilization state. Nanobody binding was detected by using His-tag specific antibody (Invitrogen, catalogue number MA1-135, 1 μg/ml) or Myc-tag specific antibody (Invitrogen, catalogue number 13-2500, 2 μg/ml) and then anti-mouse-Alexa Fluor 488 (Invitrogen, catalogue number A11001, 1.3 μg/ml) at least for 30 min on ice. Cells were washed one time between each step by centrifugation (200×g for 5 min at 4° C.). All incubations (100 μl) and washes (1.5 ml) were performed in PBS with 6% fetal bovine serum (FBS) and 0.01%13-DDM on ice. Cells fluorescence was measured with Gallios Flow Cytometer (Beckman Coulter). Data were analyzed with Kaluza software.

Row | Molecule | labelling of parental BHK-21 cells
1 | B1 | no difference in labelling
2 | B2 | no difference in labelling
3 | B3 | no difference in labelling
4 | B4 | no difference in labelling
5 | B5 | no difference in labelling

Target: wt-CFTR (Homo sapiens, UniProt P13569)
Assay: CFTR pull-down from solubilized BHK-21 cells with immunoblot
Format: binding
Set-up: expressed in transfected cells
Conditions: immunoblot with mAb 596
Description: Human wt-CFTR was extracted from BHK-21 cells pellet by solubilization with 1% DMNG in PBS with proteases inhibitors for 1 h at 4° C. The cells debris were removed by centrifugation (16,000×g for 30 min at 4° C.). Supernatant was diluted 10 times in PBS with proteases inhibitors plus 10 mM imidazole and incubated at least for 30 min on HisPur Ni-NTA Resin (Thermo Scientific) pre-loaded with nanobodies. Resin was washed with 40 column volumes of PBS with 300 mM NaCl. Nanobodies were eluted with 200 mM imidazole in PBS. Presence of CFTR in each sample was detected by SDS-PAGE and immuno-blotting.
Cell extracts were separated by SDS-PAGE on 7.5% polyacrylamide gel and transferred to nitrocellulose membrane (Bio-Rad) for immunodetection. After blocking for 1 h with 5% bovine serum albumin (BSA) in Tris-buffered saline added 0.05% Tween-20 (TBST), CFTR was detected using monoclonal antibody mAb 596, IgG2b (CFTR Antibody Distribution Program, dilution 1:46) for 1 h in blocking buffer. Blot was washed 3 times 5 min and incubated with anti-mouse-HRP antibody (Millipore, catalogue number: AP308P, 0.2 μg/ml) for 1 h in TBST. Membrane was washed 3 times for 5 min. CFTR was visualized by chemiluminescence using Luminata Forte Western HRP Substrate (Millipore) and detected with ImageQuant 400 (GE Healthcare).

wt-CFTR, sequence (P13569 whole entry): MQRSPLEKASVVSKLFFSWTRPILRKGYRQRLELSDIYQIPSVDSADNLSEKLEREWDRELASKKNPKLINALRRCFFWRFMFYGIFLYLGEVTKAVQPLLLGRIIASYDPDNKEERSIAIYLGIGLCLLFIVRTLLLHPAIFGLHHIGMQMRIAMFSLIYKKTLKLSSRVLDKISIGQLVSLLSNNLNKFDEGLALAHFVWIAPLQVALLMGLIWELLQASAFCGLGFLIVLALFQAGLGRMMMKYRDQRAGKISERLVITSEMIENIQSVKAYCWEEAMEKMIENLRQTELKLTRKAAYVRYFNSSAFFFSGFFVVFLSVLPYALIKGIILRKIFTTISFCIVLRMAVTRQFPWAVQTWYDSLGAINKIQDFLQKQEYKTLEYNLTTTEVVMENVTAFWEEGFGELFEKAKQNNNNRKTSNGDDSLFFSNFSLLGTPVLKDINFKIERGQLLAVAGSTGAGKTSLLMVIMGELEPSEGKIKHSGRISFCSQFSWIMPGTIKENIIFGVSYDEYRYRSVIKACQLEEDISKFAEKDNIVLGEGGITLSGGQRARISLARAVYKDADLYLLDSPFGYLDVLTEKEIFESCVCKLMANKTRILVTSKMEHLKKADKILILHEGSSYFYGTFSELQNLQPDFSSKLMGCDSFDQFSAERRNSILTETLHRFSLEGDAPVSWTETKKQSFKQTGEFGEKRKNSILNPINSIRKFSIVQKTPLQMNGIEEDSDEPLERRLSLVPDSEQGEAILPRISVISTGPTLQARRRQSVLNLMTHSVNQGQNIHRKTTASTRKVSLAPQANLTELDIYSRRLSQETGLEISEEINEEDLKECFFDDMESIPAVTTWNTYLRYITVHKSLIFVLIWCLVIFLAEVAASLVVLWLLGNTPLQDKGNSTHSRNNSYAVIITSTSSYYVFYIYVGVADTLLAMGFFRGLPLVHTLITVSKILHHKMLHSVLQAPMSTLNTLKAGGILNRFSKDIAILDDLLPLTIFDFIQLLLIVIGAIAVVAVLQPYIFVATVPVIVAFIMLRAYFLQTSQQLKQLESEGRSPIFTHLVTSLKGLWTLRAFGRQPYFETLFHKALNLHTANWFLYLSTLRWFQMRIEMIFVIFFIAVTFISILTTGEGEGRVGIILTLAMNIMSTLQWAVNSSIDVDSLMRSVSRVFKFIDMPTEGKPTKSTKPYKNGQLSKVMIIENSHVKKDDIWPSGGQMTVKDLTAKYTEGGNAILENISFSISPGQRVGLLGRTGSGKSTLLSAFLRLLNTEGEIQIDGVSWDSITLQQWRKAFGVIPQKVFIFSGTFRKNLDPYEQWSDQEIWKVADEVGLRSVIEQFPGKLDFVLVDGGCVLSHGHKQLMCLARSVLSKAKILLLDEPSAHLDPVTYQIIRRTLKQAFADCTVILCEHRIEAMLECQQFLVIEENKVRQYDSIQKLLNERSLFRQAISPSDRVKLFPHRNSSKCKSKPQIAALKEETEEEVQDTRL

Row | Molecule | pull-down of cellular CFTR, electrophoresis pattern (mature band C)
6 | B1 | identical electrophoresis pattern as observed in whole cell lysate
7 | B2 | also observed
8 | B3 | identical electrophoresis pattern as observed in whole cell lysate
9 | B4 | also observed
10 | B5 | identical electrophoresis pattern as observed in whole cell lysate

Target: T1, 2PT-NBD1 (Homo sapiens, UniProt P13569, A534P/I539T/S492P/V470M)
T1 construct: 2PT-NBD1 mutants (residues 387-646 containing the mutations S492P, A534P, I539T); His6-SUMO (N, cleaved yes); made in house; host or cells: Escherichia coli BL21(DE3) pLysS
Assay: Thermal shift assay (DSF) of 2PT-NBD1
Format: binding
Conditions: versus isolated 2PT-NBD1
Description: Solutions of either 2PT-NBD1 or F508del-2PT-NBD1 (10 μM final concentration), nanobodies (30 μM final concentration) and 2.5× or 5× concentrated SYPRO Orange Protein Stain (Molecular Probes) diluted in 20 mM HEPES pH 7.5, 150 mM NaCl, 3 mM MgCl2, 2 mM ATP and 10% (w/v) glycerol, 10% (w/v) ethylene glycol, were added to the wells of a 96-well PCR plates type BR white (VWR) in a final volume of 25 μl. Plates were sealed with EasySeal sheets (Molecular dimensions) and spun 2 min at 900× g. SYPRO orange fluorescence was monitored in CFX96 Touch Real-Time PCR Detection System (Bio-Rad) using FRET scan mode from 10 to 80° C. in increments of either 1° C. or 0.2° C.

T1 sequence (P13569 388-646 V470M/S492P/A534P/I539T): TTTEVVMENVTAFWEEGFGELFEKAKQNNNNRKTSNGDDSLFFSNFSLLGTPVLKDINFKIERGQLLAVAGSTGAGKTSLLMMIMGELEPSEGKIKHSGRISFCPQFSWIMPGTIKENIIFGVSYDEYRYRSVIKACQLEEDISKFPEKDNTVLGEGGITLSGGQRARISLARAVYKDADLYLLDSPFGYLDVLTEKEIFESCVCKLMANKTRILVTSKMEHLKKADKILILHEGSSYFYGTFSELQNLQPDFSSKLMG

Row | Molecule | increase of Tm of 2PT-NBD1
11 | B1 | 11.2 °C
12 | B2 | 11.9 °C
13 | B3 | 9.3 °C
14 | B4 | 13.8 °C
15 | B5 | did not induce a significant shift

Target: 2PT-NBD1-RE
Assay: NBD1 ELISA dose-response, binding to 2PT-NBD1-RE
Set-up: species or system human
Conditions: not given
From the text: Human ΔRI-NBD1 (residues 387-646, A405-436; SEQ ID NO:59) construct was obtained from Arizona State University Plasmid Repository (clone id: 287374), 2PT-NBD1 mutants (residues 387-646 containing the mutations S492P, A534P, I539T; SEQ ID NO:58), 2PT-NBD1-RE (2PT-NBD1 with residues 387-678) were constructed using WT-NBD1 construct from ASU (clone id: 287401). Mutations were introduced by PCR using PfuUltra high-fidelity DNA polymerase from Agilent (catalogue number: 600382) and sequences were confirmed by automated DNA sequencing (UNC-CH Genome Analysis Facility). Proteins were expressed as N-terminal, His6-SUMO fusion proteins in Escherichia coli (BL21(DE3) pLysS cells, Millipore) as described in [5,11] with the following modifications. Cells were lysed using a French press and recombinant proteins were purified by nickel ion affinity chromatography (HisTrap HP, 1 ml—GE Healthcare). The His6-SUMO tag was removed using Ulp1 protease at 1/100 weight/weight ratio during 20 min on ice. […] Protein concentration was determined using Coomassie Plus (Bradford) Assay Kit (Thermo Scientific).
For dose-response assays, Nunc MaxiSorp 96-well plates (ThermoScientific), were coated with 5 μg/ml NeutrAvidin Biotin-Binding protein (ThermoScientific) overnight at 4° C. and blocked 2 h at room temperature (RT) with 2% milk in phosphate-buffered saline (PBS). Each new reagent addition was preceded by three washes with 200 μl of NBD1 buffer (20 mM HEPES pH 7.5, 150 mM NaCl, and 10% (w/v) glycerol, 10% (w/v) ethylene glycol, 2 mM ATP, 3 mM MgCl2). Then, biotinylated purified NBD1 proteins at 5 μg/ml were immobilized 30 min at RT followed by 1 h RT incubation with 100 μl various concentrations (0-20 μg/ml) of purified nanobodies. Signal detection was followed using His-tag specific antibody (Invitrogen, catalogue number: MA1-135, 1:3000 dilution) to detect the nanobodies and secondary antibody anti-mouse coupled to horse radish peroxidase (HRP) (Millipore, catalogue number: AP308P, 1:5000 dilution). 50 μl of 1-Step UltraTMB-ELISA (ThermoScientific) was used as a substrate for the peroxidase and intensity of the reaction was proportional to absorbance measured at 450 nm with SynergyMx (BioTek) after addition of 50 μl H2SO4 at 1M.

2PT-NBD1-RE, sequence (P13569 387-678 S492P/A534P/I539T): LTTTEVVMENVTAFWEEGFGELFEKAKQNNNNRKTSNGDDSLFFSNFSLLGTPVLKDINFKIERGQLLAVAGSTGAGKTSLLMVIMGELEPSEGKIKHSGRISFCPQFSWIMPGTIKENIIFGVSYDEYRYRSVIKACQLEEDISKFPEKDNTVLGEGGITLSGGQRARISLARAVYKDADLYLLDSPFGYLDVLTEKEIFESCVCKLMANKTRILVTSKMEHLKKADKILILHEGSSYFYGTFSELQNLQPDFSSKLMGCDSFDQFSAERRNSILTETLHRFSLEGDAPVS

Row | Molecule | apparent EC50 on 2PT-NBD1-RE compared to 2PT-NBD1
16 | B1 | decrease in apparent EC50
17 | B2 | decrease in apparent EC50
18 | B4 | decrease in apparent EC50

Same assay, conditions: construct containing the regulatory extension

Row | Molecule | binding to 2PT-NBD1-RE
19 | B1 | high-affinity binding
20 | B2 | high-affinity binding
21 | B4 | high-affinity binding
